Measured values taken from patent publication US7332279B2 (Glycozym APS, priority 1999, dated 2008).

B1: Hen egg albumin: glycoprotein acceptor substrate (protein, UniProt P01012 2-386, looked up)
Ovalbumin: GSIGAASMEFCFDVFKELKVHHANENIFYCPIAIMSALAMVYLGAKDSTRTQINKVVRFDKLPGFGDSIEAQCGTSVNVHSSLRDILNQITKPNDVYSFSLASRLYAEERYPILPEYLQCVKELYRGGLEPINFQTAADQARELINSWVESQTNGIIRNVLQPSSVDSQTAMVLVNAIVFKGLWEKAFKDEDTQAMPFRVTEQESKPVQMMYQIGLFRVASMASEKMKILELPFASGTMSMLVLLPDEVSGLEQLESIINFEKLTEWTSSNVMEERKIKVYLPRMKMEEKYNLTSVLMAMGITDVFSSSANLSGISSAESLKISQAVHAAHAEINEAGREVVGSAEAGVDAASVSEEFRADHPFLFCIKHIATNAVLFFGRCVSP

Key:
β3Gal-T1 = target: T1, β3Gal-T1 (Homo sapiens, UniProt Q9Y5Z6); assay: Galactosyltransferase assay with glycoprotein acceptors, β3Gal-T1; assay type: biochemical; settings: for β3Gal-T1 activity with glycoprotein acceptor: 0.5 mg glycoprotein, 150 μM UDP-Gal
T1 construct: The kinetic properties were determined with partially purified, secreted forms of the enzymes; made in house; host or cells: baculovirus; Sf9 / High Five insect cells, medium
T1 sequence (Q9Y5Z6 27-326 limits assumed): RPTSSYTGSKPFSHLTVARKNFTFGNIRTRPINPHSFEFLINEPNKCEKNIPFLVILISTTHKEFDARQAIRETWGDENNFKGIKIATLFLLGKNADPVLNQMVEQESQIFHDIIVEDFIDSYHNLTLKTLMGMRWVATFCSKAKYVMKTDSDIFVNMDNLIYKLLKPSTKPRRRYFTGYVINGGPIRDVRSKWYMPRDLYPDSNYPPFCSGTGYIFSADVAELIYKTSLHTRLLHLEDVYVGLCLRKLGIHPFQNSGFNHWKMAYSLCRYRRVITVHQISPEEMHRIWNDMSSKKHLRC
Experimental: (§1) The kinetic properties were determined with partially purified, secreted forms of the enzymes. Semipurification of enzymes from serum-free medium of infected High-Five™ cells was performed by sequential Amberlite, DEAE-Sephacel and 5-Sepharose chromatography as described previously (Wandall, H. H., Hassan, H., Mirgorodskaya, E., et al. Substrate specificities of three. members of the human UDP-N-acetyl-alpha-D-galactosamine:Polypeptide Nacetylgalactosaminyltransferase family, GalNAc-T1, -T2, and -T3. J. Biol. Chem. 272:23503-23514, 1997). Comparisons of enzymes were performed relatively to the activity obtained with βGlcNAc-Bz1 (Tables II and III). Full length enzymes were assayed with 1% Triton CF54 homogenates of washed cells. Enzyme assays were performed in 50 μl total reaction mixtures containing 25 mM Cacodylate (pH 7.5), 10 mM MnCl2, 0.25% Triton X-100, 100 μM UDP-[^14C]-Gal (2,600 cpm/nmol) (Amersham), and varying concentrations of acceptor substrates (Sigma) (see Table I for structures). Reaction products were quantified by Dowex-1 chromatography. […] The transfer of Gal was evaluated after acid precipitation by filtration through Whatman GF/C glass fibre filters. […] Assays with glycolipid acceptors were conducted as previously described (Holmes, E. H. Characterization and membrane organization of beta 1-3- and beta 1-4-galactosyltransferases from human colonic adenocarcinoma cell lines Cob 205 and SW403: basis for preferential synthesis of type 1 chain lacto-series carbohydrate structures. Arch Biochem Biophys 270:630-646, 1989) in reaction mixtures containing 2.5 μmol HEPES buffer, pH 7.2, μmol MnCl2, 100 μg taurodeoxycholate or Triton CF-54, 20 μg acceptor glycolipid, 15 nmol UDP-[^14C]-galactose (13,000 cpm/nmol) and enzyme in a total volume of 100 μl. Conditions for incubation and product isolation were as previously described (Id.).

β3Gal-T2 = target: T2, β3Gal-T2 (Homo sapiens, UniProt O43825); assay: Galactosyltransferase assay with glycoprotein acceptors, β3Gal-T2; assay type: biochemical; settings: for β3Gal-T2 activity with glycoprotein acceptor: 0.5 mg glycoprotein, 150 μM UDP-Gal
T2 construct: The kinetic properties were determined with partially purified, secreted forms of the enzymes; made in house; host or cells: baculovirus; Sf9 / High Five insect cells, medium
T2 sequence (O43825 46-422 limits assumed): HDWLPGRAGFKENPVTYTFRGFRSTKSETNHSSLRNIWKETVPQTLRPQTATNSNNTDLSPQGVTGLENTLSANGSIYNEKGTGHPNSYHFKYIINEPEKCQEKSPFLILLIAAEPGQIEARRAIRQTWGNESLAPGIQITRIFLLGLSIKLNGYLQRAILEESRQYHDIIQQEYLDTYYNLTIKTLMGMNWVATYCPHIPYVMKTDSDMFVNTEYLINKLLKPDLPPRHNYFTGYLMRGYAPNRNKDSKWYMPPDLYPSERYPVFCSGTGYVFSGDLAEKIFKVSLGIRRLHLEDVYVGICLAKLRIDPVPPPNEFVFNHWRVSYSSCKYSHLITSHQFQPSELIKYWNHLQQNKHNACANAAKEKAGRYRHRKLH
Experimental: as §1

β3Gal-T5 [1] = target: T3, β3Gal-T5 (Homo sapiens, UniProt Q9Y2C3, M85T); assay: Galactosyltransferase assay with glycoprotein acceptors, β3Gal-T5; assay type: biochemical; settings: for β3Gal-T5 activity with glycoprotein acceptor: 0.5 mg glycoprotein, 150 μM UDP-Gal
T3 construct: designed to exclude the hydrophobic transmembrane segment and to encode amino acid residues 25-310; secretion signal of vector pAcGP67B (gp67); made in house; host or cells: baculovirus; Sf9 cells (media) and High Five cells (serum-free medium, partially purified)
T3 sequence (Q9Y2C3 25-310 M85T): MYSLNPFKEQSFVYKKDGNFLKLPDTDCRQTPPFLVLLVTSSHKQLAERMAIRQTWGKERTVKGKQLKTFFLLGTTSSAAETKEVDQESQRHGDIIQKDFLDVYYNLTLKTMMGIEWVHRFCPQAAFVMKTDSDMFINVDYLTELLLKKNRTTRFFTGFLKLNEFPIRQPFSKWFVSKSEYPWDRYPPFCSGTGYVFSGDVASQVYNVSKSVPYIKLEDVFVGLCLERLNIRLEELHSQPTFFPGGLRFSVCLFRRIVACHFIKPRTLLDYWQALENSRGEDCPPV
Experimental: as §1

[2] = test system: human colonic β3Gal-transferase activity; settings: acceptor substrate; read-out: apparent Km, human colonic β3Gal-T activity; cited from earlier work
β3Gal-T5 [3] = target: T3, β3Gal-T5; assay: Galactosyltransferase assay with glycolipid acceptors, β3Gal-T5; assay type: biochemical
Experimental: as §1

[4] = test system: β3Gal-T activity from Colo205 cells; settings: acceptor substrate; cited from earlier work

Row | Molecule | β3Gal-T1 ratio glycoprotein / β-D-GlcNAc-Bzl (β3Gal-T1) | β3Gal-T1 activity with glycoprotein acceptor (β3Gal-T1) [mmol/min] | β3Gal-T2 ratio glycoprotein / β-D-GlcNAc-Bzl (β3Gal-T2) | β3Gal-T2 activity with glycoprotein acceptor (β3Gal-T2) [mmol/min] | β3Gal-T5 ratio glycoprotein / β-D-GlcNAc-Bzl (β3Gal-T5 [1]) | β3Gal-T5 activity with glycoprotein acceptor (β3Gal-T5 [1]) [mmol/min] | Km [2] [µM] | β3Gal-T5 activity with glycolipid acceptor, Triton CF-54 (β3Gal-T5 [3]; 100 μg Triton CF-54/100 μl, 20 μg glycolipid) [µmol/h/mg] | β3Gal-T5 activity with glycolipid acceptor, TDOC (β3Gal-T5 [3]; 100 μg taurodeoxycholate/100 μl, 20 μg glycolipid) [µmol/h/mg] | Km (β3Gal-T5 [3]; in the presence taurodeoxycholate, based on data points at low concentrations (substrate inhibition), read-out: apparent Km of β3Gal-T5) [µM] | Km [4] [µM]
1 | Orosomucoid: glycoprotein acceptor substrate | (0.0) | 0.0 | (0.0) | 0.0 | (0.0) | 0.0 | – | – | – | – | –
2 | CC(=O)N[C@H]1[C@H](O[C@H]2[C@@H](O)[C@@H](CO)O[C@@H](O[C@H]3[C@H](O)[C@@H](O)C(O)O[C@@H]3CO)[C@@H]2O)O[C@H](CO)[C@@H](O)[C@@H]1O (stereo partly drawn) [β-D-GlcNAc(1-3)-D-β-Gal(1-4)-D-β-Glc] | – | – | – | – | – | – | 2900 | – | – | – | –
3 | GlcNAcβ1-3Galβ1-4Glcβ1-Cer [Lc3] | – | – | – | – | – | – | – | 3.6 | 4.4 | ~2 | 13
4 | Bovine submaxillary mucin | (0.0) | 0.0 | (0.0) | 0.0 | (0.4) | 0.04 | – | – | – | – | –
5 | Asialo-agalacto-fetuin: glycoprotein acceptor substrate | (0.3) | 0.01 | (1.8) | 0.07 | (0.0) | 0.0 | – | – | – | – | –
6 | B1 | (0.0) | 0.0 | (0.5) | 0.02 | (0.0) | 0.0 | – | – | – | – | –
